This is an account of results in patent US20200405868A1, “GEL-FORMING POLYPEPTIDES” (priority 2018, published 2020).

A short description of this data set: Compound gel-forming ability in water (visual inspection, tube tapping assay, tilted tube assay).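 On all read-outs here: peptides mixed with de-ionized water at about 22-25 °C, judged after 20 min by eye plus tube tapping (10 taps, moves counted) and 90° tilt mobility.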 Conditions: for gel formation at 11% w/w: 11% w/w in water; for gel formation at 20% w/w: 20% w/w in water; for gel formation in aqueous solution, 20% / gel formation in aqueous solution, 6% / gel formation in aqueous solution, 11%: Table 3; for gel formation in aqueous solution, 20% / propensity to form gels, wild-type counterparts, 20% / propensity to form gels, chimeric or mutated polypeptides, 20%: 20% w/w; for propensity to form gels, wild-type counterparts, 20% / propensity to form gels, wild-type counterparts, 6% / propensity to form gels, wild-type counterparts, 11% / propensity to form gels, chimeric or mutated polypeptides, 6% / propensity to form gels, chimeric or mutated polypeptides, 11% / propensity to form gels, chimeric or mutated polypeptides, 3% / propensity to form gels, chimeric or mutated polypeptides, 20%: Table 5; for gel formation at 6% w/w: 6% w/w in water; for Physical property at 11% w/w: 11% w/w in aqueous solution, room temperature; for gel formation in aqueous solution, 6% / propensity to form gels, wild-type counterparts, 6% / propensity to form gels, chimeric or mutated polypeptides, 6%: 6% w/w; for gel formation in aqueous solution, 11% / propensity to form gels, wild-type counterparts, 11% / propensity to form gels, chimeric or mutated polypeptides, 11%: 11% w/w; for propensity to form gels, chimeric or mutated polypeptides, 3%: 3% w/w. The format is physicochemical.

“Also recorded” adds a separate entry of the source. *1 amine or outer side, *2 acyl side, *3 side chain or, on linkers, in order; H or OH if unused. Where no end group is shown, it is not given here. The star is where a group is joined. FITC = O=C1OC2(c3ccc(O)cc3Oc3cc(O)ccc32)c2ccc(NC(=S)*)cc21; K(Pal) = CCCCCCCCCCCCCCCC(=O)NCCCC[C@H](N[*:1])C(=O)[*:2]; Palmitoyl = CCCCCCCCCCCCCCCC(=O)*

Turning to “SDAAVDTSSEITTKDLKEKKEVVEEAEN-NH2 (ends and bridges not checked) [SEQ ID NO:13, reference compound]”, the “gel formation at 11% w/w” value was “form self-assembling gels; also recorded: liquid gel”; the “gel formation at 20% w/w” value was “semisolid gel”; the “gel formation in aqueous solution, 20%” value is reported as “SS (SS for semisolid gel)”; the “propensity to form gels, wild-type counterparts, 20%” value was “SS (An ability to form semisolid gel is represented by an SS)”.

Regarding “Y-(D-Met)-FHLMD-NH2 [SEQ ID NO:21, reference compound]”, the “gel formation at 6% w/w” value is given as “do not form gels”; the “gel formation at 11% w/w” value is given as “do not form gels”; the “gel formation in aqueous solution, 6%” value is given as “AS/IS (AS/IS for aqueous solution or insoluble)”; the “gel formation in aqueous solution, 11%” value is “AS/IS (AS/IS for aqueous solution or insoluble)”. Moreover, the “propensity to form gels, wild-type counterparts, 6%” value was “AS/IS” and the “propensity to form gels, wild-type counterparts, 11%” value is “AS/IS”. Further, the “Physical property at 11% w/w” value (Table 1) was “AS/IS”.

On to “Pal-SSPHSY-miniPEG-YRSRKYSSVVY-NH2 ({Palmitoyl-Ser-Ser-Pro-H2N-Ser-Tyr-miniPEG}-YRSRKYSSVVY-NH2) [SEQ ID NO:249]”, for which the “gel formation at 11% w/w” value is reported as “semisolid gel”; the “gel formation in aqueous solution, 6%” value is recorded as “AS/IS (AS/IS for aqueous solution or insoluble)”; the “gel formation in aqueous solution, 11%” value is on record as “SS (SS for semisolid gel)”; the “propensity to form gels, chimeric or mutated polypeptides, 6%” value is given as “AS/IS”. In addition, the “propensity to form gels, chimeric or mutated polypeptides, 11%” value is given as “SS (An ability to form semisolid gel is represented by an SS)”.

For “(G1p)RPRLSHKGP(Nle)PF-K(Pal)HSY-NH2 [SEQ ID NO:262]”, the “gel formation at 11% w/w” value was “liquid gel”; the “gel formation at 20% w/w” value is listed as “liquid gel”; the “propensity to form gels, chimeric or mutated polypeptides, 3%” value is “AS/IS”.

“Pal-SSPHSY-miniPEG-ICVVQDWGHHRCT-NH2 [SEQ ID NO:244]”: the “gel formation at 11% w/w” value is “semisolid gel”; the “gel formation in aqueous solution, 6%” value is on record as “AS/IS (AS/IS for aqueous solution or insoluble)”; the “gel formation in aqueous solution, 11%” value is “SS (SS for semisolid gel)”; the “propensity to form gels, chimeric or mutated polypeptides, 6%” value was “AS/IS”. The “propensity to form gels, chimeric or mutated polypeptides, 11%” value is “SS (An ability to form semisolid gel is represented by an SS)”.

Turning to “YNWNSFGLRF-NH2 [SEQ ID NO:6, reference compound]”, the “gel formation at 6% w/w” value is reported as “semisolid gel”; the “gel formation at 11% w/w” value is “form self-assembling gels; also recorded: semisolid gel”; the “gel formation in aqueous solution, 6%” value is on record as “SS (SS for semisolid gel)”; the “gel formation in aqueous solution, 11%” value is “SS (SS for semisolid gel)”. Further, the “propensity to form gels, wild-type counterparts, 6%” value is listed as “SS (An ability to form semisolid gel is represented by an SS)” and the “propensity to form gels, wild-type counterparts, 11%” value is listed as “SS (An ability to form semisolid gel is represented by an SS)”. Further, the “Physical property at 11% w/w” value (Table 1) is reported as “SS (SS for semisolid gel)”.

In the case of “(G1p)RPRLSHKGP(Nle)PF-miniPEG-K(Pal)VQKLSAPVDPSSPHSY-NH2 [SEQ ID NO:206]”, the “gel formation at 11% w/w” value was “liquid gel” and the “gel formation at 20% w/w” value was “liquid gel”.

Take “Pal-HSYRPKPQQFF-Sar-L-Met-(02)-NH2 [SEQ ID NO:254]”: the “gel formation in aqueous solution, 20%” value is “SS (SS for semisolid gel)” and the “propensity to form gels, chimeric or mutated polypeptides, 20%” value is given as “SS (An ability to form semisolid gel is represented by an SS)”.

As for “Pal-QKLAHQIYQFTDKDVAPRSKISPQGY-NH2 (Palmitoyl-QKLAHQIYQFTDKDVAPRSKISPQGY-NH2; SMILES CCCCCCCCCCCCCCCC(=O)N[C@@H](CCC(N)=O)C(=O)N[C@@H](CCCCN)C(=O)N[C@@H](CC(C)C)C(=O)N[C@@H](C)C(=O)N[C@@H](Cc1c[nH]cn1)C(=O)N[C@@H](CCC(N)=O)C(=O)N[C@H](C(=O)N[C@@H](Cc1ccc(O)cc1)C(=O)N[C@@H](CCC(N)=O)C(=O)N[C@@H](Cc1ccccc1)C(=O)N[C@H](C(=O)N[C@@H](CC(=O)O)C(=O)N[C@@H](CCCCN)C(=O)N[C@@H](CC(=O)O)C(=O)N[C@H](C(=O)N[C@@H](C)C(=O)N1CCC[C@H]1C(=O)N[C@@H](CCCNC(=N)N)C(=O)N[C@@H](CO)C(=O)N[C@@H](CCCCN)C(=O)N[C@H](C(=O)N[C@@H](CO)C(=O)N1CCC[C@H]1C(=O)N[C@@H](CCC(N)=O)C(=O)NCC(=O)N[C@@H](Cc1ccc(O)cc1)C(N)=O)[C@@H](C)CC)C(C)C)[C@@H](C)O)[C@@H](C)CC) [SEQ ID NO:103]”, the “Physical property at 11% w/w” value (Table 2) is listed as “AS/IS (AS/IS for aqueous solution or insoluble)”.

Take “Pal-HSY-(D-Phe)-QWAVGHL-(4-Cl)Phe-NH2 [SEQ ID NO:255]”: the “gel formation in aqueous solution, 11%” value is given as “SS (SS for semisolid gel)”; the “propensity to form gels, chimeric or mutated polypeptides, 3%” value is on record as “AS/IS”; the “propensity to form gels, chimeric or mutated polypeptides, 11%” value is reported as “SS (An ability to form semisolid gel is represented by an SS)”.

For “Pal-KVQKLAHQIYQFTDKD(Aib)APVDPSSPHSY-NH2 [SEQ ID NO:126]”, under “Table 2”, the “Physical property at 11% w/w” value was “SS (SS for semisolid gel)”.

Regarding “HGDGSFSDEMNTILDNLAARDFINWLIQTKITD-OH [SEQ ID NO:12, reference compound]”, the “gel formation at 11% w/w” value is reported as “liquid gel”; the “gel formation in aqueous solution, 6%” value is listed as “AS/IS (AS/IS for aqueous solution or insoluble)”; the “propensity to form gels, wild-type counterparts, 6%” value was “AS/IS”.

On to “FITC-K(Pal)SSPHSY-miniPEG-GRKKRRQRRRPQ ({FITC-K(Pal)-Ser-Ser-Pro-H2N-Ser-Tyr-miniPEG}-GRKKRRQRRRPQ) [SEQ ID NO:241]”, for which the “gel formation at 11% w/w” value was “liquid gel”.

Turning to “Pal-HSYH-(D-Phe)-RWGKPV-NH2 [SEQ ID NO:273]”, the “gel formation in aqueous solution, 11%” value is “SS (SS for semisolid gel)”; the “gel formation in aqueous solution, 20%” value is “SS (SS for semisolid gel)”; the “propensity to form gels, chimeric or mutated polypeptides, 11%” value is reported as “SS (An ability to form semisolid gel is represented by an SS)”; the “propensity to form gels, chimeric or mutated polypeptides, 20%” value is on record as “SS (An ability to form semisolid gel is represented by an SS)”.

With “Pal-SSPHSY-miniPEG-SLRRSSCFGGRMDRIGAQSGLGCNSFRY-NH2 [SEQ ID NO:238]”, the “gel formation at 11% w/w” value was “semisolid gel”; the “gel formation at 20% w/w” value is reported as “semisolid gel”; the “gel formation in aqueous solution, 11%” value is listed as “SS (SS for semisolid gel)”; the “gel formation in aqueous solution, 20%” value was “SS (SS for semisolid gel)”. For the same substance, the “propensity to form gels, chimeric or mutated polypeptides, 11%” value is recorded as “SS (An ability to form semisolid gel is represented by an SS)” and the “propensity to form gels, chimeric or mutated polypeptides, 20%” value was “SS (An ability to form semisolid gel is represented by an SS)”.

As for “HSDAVFTDNYTRLRKQMAVKKYLNSILN [SEQ ID NO:67, reference compound]”, the “gel formation at 11% w/w” value is reported as “does not form gel”; the “gel formation at 20% w/w” value is on record as “does not form gel”; the “gel formation in aqueous solution, 11%” value was “AS/IS (AS/IS for aqueous solution or insoluble)”; the “gel formation in aqueous solution, 20%” value is given as “AS/IS (AS/IS for aqueous solution or insoluble)”. The “propensity to form gels, wild-type counterparts, 11%” value is “AS/IS” and the “propensity to form gels, wild-type counterparts, 20%” value is reported as “AS/IS”.

In the case of “QQRFEWEFEQQ-miniPEG-RPKPQQFFGLM-NH2 [SEQ ID NO:285]”, the “gel formation in aqueous solution, 6%” value is reported as “AS/IS (AS/IS for aqueous solution or insoluble)” and the “gel formation in aqueous solution, 11%” value was “AS/IS (AS/IS for aqueous solution or insoluble)”.
